Assays:
[1] = test system: HeLa Kyoto; assay: thermal stability score vs G1/S (z-score of summed log2 fold changes over temperatures); higher = more thermally stable than in G1/S
[2] = test system: HeLa Kyoto; assay: melting temperature (median over replicates), in situ; higher = more thermally stable
[3] = test system: HeLa Kyoto; assay: solubility in G1/S (NP-40 vs SDS abundance) (log2 ratio); higher = more soluble; settings: cell cycle stage: G1/S
[4] = test system: HeLa Kyoto; assay: solubility change mitosis vs G1/S (difference of NP-40 vs SDS log2 ratios) (log2 ratio difference); higher = more soluble in mitosis
[5] = cell cycle stage: early G1 (4.5 h after nocodazole release)
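Wherever melting temperature (median over replicates), in situ is given: HeLa Kyoto cells synchronized by double thymidine or nocodazole block, proteins quantified by TMT10plex mass spectrometry, three independent biological replicates.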
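Wherever solubility change mitosis vs G1/S (difference of NP-40 vs SDS log2 ratios) is given: synchronized HeLa Kyoto cells (double thymidine block for G1/S, nocodazole release for mitosis), protein amounts in NP-40 versus SDS lysates quantified by mass spectrometry, three biological replicates.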
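Wherever solubility in G1/S (NP-40 vs SDS abundance) is given: HeLa Kyoto cells arrested at G1/S by double thymidine block, proteins quantified by TMT10plex mass spectrometry in mild NP-40 versus SDS extracts, three biological replicates.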
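Wherever thermal stability score vs G1/S (z-score of summed log2 fold changes over temperatures) is given: synchronized HeLa Kyoto cells, proteins quantified by TMT10plex mass spectrometry, three biological replicates, mitosis taken 0.5 h after nocodazole release, G1/S directly after double thymidine block.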

“MFRKARRVNVRKRNDSEEEERERDEEQEPPPLLPPPGTGEEAGPGGGDRAPGGESLLGPGPSPPSALTPGLGAEAGGGFPGGAEPGNGLKPRKRPRENKEVPRASLLSFQDEEEENEEVFKVKKSSYSKKIVKLLKKEYKEDLEKSKIKTELNSSAESEQPLDKTGHVKDTNQEDGVIISEHGEDEMDMESEKEEEKPKTGGAFSNALSSLNVLRPGEIPDAAFIHAARKKRQMARELGDFTPHDNEPGKGRLVREDENDASDDEDDDEKRRIVFSVKEKSQRQKIAEEIGIEGSDDDALVTGEQDEELSRWEQEQIRKGINIPQVQASQPAEVNMYYQNTYQTMPYGSSYGIPYSYTAYGSSDAKSQKTDNTVPFKTPSNEMTPVTIDLVKKQLKDRLDSMKELHKTNRQQHEKHLQSRVDSTRAIERLEGSSGGIGERYKFLQEMRGYVQDLLECFSEKVPLINELESAIHQLYKQRASRLVQRRQDDIKDESSEFSSHSNKALMAPNLDSFGRDRALYQEHAKRRIAEREARRTRRRQAREQTGKMADHLEGLSSDDEETSTDITNFNLEKDRISKESGKVFEDVLESFYSIDCIKSQFEAWRSKYYTSYKDAYIGLCLPKLFNPLIRLQLLTWTPLEAKCRDFENMLWFESLLFYGCEEREQEKDDVDVALLPTIVEKVILPKLTVIAENMWDPFSTTQTSRMVGITLKLINGYPSVVNAENKNTQVYLKALLLRMRRTLDDDVFMPLYPKNVLENKNSGPYLFFQRQFWSSVKLLGNFLQWYGIFSNKTLQELSIDGLLNRYILMAFQNSEYGDDSIKKAQNVINCFPKQWFMNLKGERTISQLENFCRYLVHLADTIYRNSIGCSDVEKRNARENIKQIVKLLASVRALDHAMSVASDHNVKEFKSLIEGK [PAXBP1]” was tested, and the thermal stability score [1, 5] was 0.626, the thermal stability score ([1]; cell cycle stage: mitosis) was 1.5 and the melting temperature ([2]; cell cycle stage: G1/S) was 48.6 °C. For the same substance, the melting temperature ([2]; cell cycle stage: mitosis) was 49 °C, the “solubility in G1/S (log2)” value [3] was -0.54 and the “solubility change mitosis (log2)” value [4] was 0.153.

“MFRRPVLQVLRQFVRHESETTTSLVLERSLNRVHLLGRVGQDPVLRQVEGKNPVTIFSLATNEMWRSGDSEVYQLGDVSQKTTWHRISVFRPGLRDVAYQYVKKGSRIYLEGKIDYGEYMDKNNVRRQATTIIADNIIFLSDQTKEKE [SSBP1]” was tested, and the thermal stability score [1, 5] was 0.62, the thermal stability score ([1]; cell cycle stage: mitosis) was -1.51 and the melting temperature ([2]; cell cycle stage: G1/S) was 59.5 °C. For the same substance, the melting temperature ([2]; cell cycle stage: mitosis) was 59.6 °C, the “solubility in G1/S (log2)” value [3] was 0.0755 and the “solubility change mitosis (log2)” value [4] was 0.0149.

Substance MFSD10 has a thermal stability score [1, 5] of -2.75, a thermal stability score ([1]; cell cycle stage: mitosis) of -4.59 and a melting temperature ([2]; cell cycle stage: G1/S) of 57.2 °C. For the same substance, the melting temperature ([2]; cell cycle stage: mitosis) was 57.1 °C, the “solubility in G1/S (log2)” value [3] was -0.0104 and the “solubility change mitosis (log2)” value [4] was -0.219.

For “MFSFNMFDHPIPRVFQNRFSTQYRCFSVSMLAGPNDRSDVEKGGKIIMPPSALDQLSRLNITYPMLFKLTNKNSDRMTHCGVLEFVADEGICYLPHWMMQNLLLEEGGLVQVESVNLQVATYSKFQPQSPDFLDITNPKAVLENALRNFACLTTGDVIAINYNEKIYELRVMETKPDKAVSIIECDMNVDFDAPLGYKEPERQVQHEESTEGEADHSGYAGELGFRAFSGSGNRLDGKKKGVEPSPSPIKPGDIKRGIPNYEFKLGKITFIRNSRPLVKKVEEDEAGGRFVAFSGEGQSLRKKGRKP [UFD1L]”, the thermal stability score [1, 5] was 0.171, the thermal stability score ([1]; cell cycle stage: mitosis) was -0.639 and the melting temperature ([2]; cell cycle stage: G1/S) was 54.2 °C. For the same substance, the melting temperature ([2]; cell cycle stage: mitosis) was 54.3 °C, the “solubility in G1/S (log2)” value [3] was 0.0333 and the “solubility change mitosis (log2)” value [4] was -0.123.

“MFSLSSTVQPQVTVPLSHLINAFHTPKNTSVSLSGVSVSQNQHRDVVPEHEAPSSECMFSDFLTKLNIVSIGKGKIFEGYRSMFMEPAKRMKKSLDTTDNWHIRPEPFSLSIPPSLNLRDLGLSELKIGQIDQLVENLLPGFCKGKNISSHWHTSHVSAQSFFENKYGNLDIFSTLRSSCLYRHHSRALQSICSDLQYWPVFIQSRGFKTLKSRTRRLQSTSERLAETQNIAPSFVKGFLLRDRGSDVESLDKLMKTKNIPEAHQDAFKTGFAEGFLKAQALTQKTNDSLRRTRLILFVLLLFGIYGLLKNPFLSVRFRTTTGLDSAVDPVQMKNVTFEHVKGVEEAKQELQEVVEFLKNPQKFTILGGKLPKGILLVGPPGTGKTLLARAVAGEADVPFYYASGSEFDEMFVGVGASRIRNLFREAKANAPCVIFIDELDSVGGKRIESPMHPYSRQTINQLLAEMDGFKPNEGVIIIGATNFPEALDNALIRPGRFDMQVTVPRPDVKGRTEILKWYLNKIKFDQSVDPEIIARGTVGFSGAELENLVNQAALKAAVDGKEMVTMKELEFSKDKILMGPERRSVEIDNKNKTITAYHESGHAIIAYYTKDAMPINKATIMPRGPTLGHVSLLPENDRWNETRAQLLAQMDVSMGGRVAEELIFGTDHITTGASSDFDNATKIAKRMVTKFGMSEKLGVMTYSDTGKLSPETQSAIEQEIRILLRDSYERAKHILKTHAKEHKNLAEALLTYETLDAKEIQIVLEGKKLEVR [YME1L1]” gave a thermal stability score [1, 5] of 2.02, a thermal stability score ([1]; cell cycle stage: mitosis) of 1.49 and a melting temperature ([2]; cell cycle stage: G1/S) of 50.9 °C. The melting temperature ([2]; cell cycle stage: mitosis) was 50.8 °C, the “solubility in G1/S (log2)” value [3] was 0.0482 and the “solubility change mitosis (log2)” value [4] was -0.0396.

In the case of “MFSWLKRGGARGQQPEAIRTVTSALKELYRTKLLPLEEHYRFGAFHSPALEDADFDGKPMVLVAGQYSTGKTSFIQYLLEQEVPGSRVGPEPTTDCFVAVMHGDTEGTVPGNALVVDPDKPFRKLNPFGNTFLNRFMCAQLPNQVLESISIIDTPGILSGAKQRVSRGYDFPAVLRWFAERVDLIILLFDAHKLEISDEFSEAIGALRGHEDKIRVVLNKADMVETQQLMRVYGALMWALGKVVGTPEVLRVYIGSFWSQPLLVPDNRRLFELEEQDLFRDIQGLPRHAALRKLNDLVKRARLVRVHAYIISYLKKEMPSVFGKENKKKQLILKLPVIFAKIQLEHHISPGDFPDCQKMQELLMAHDFTKFHSLKPKLLEALDEMLTHDIAKLMPLLRQEELESTEVGVQGGAFEGTHMGPFVERGPDEAMEDGEEGSDDEAEWVVTKDKSKYDEIFYNLAPADGKLSGSKAKTWMVGTKLPNSVLGRIWKLSDVDRDGMLDDEEFALASHLIEAKLEGHGLPANLPRRLVPPSKRRHKGSAE [EHD2]”, the thermal stability score [1, 5] is reported as 1.58, the thermal stability score ([1]; cell cycle stage: mitosis) is reported as 2.05 and the melting temperature ([2]; cell cycle stage: G1/S) is reported as 48.9 °C. The melting temperature ([2]; cell cycle stage: mitosis) was 49.5 °C, the “solubility in G1/S (log2)” value [3] was 0.231 and the “solubility change mitosis (log2)” value [4] was -0.164.

Work on “MFVPCGESAPDLAGFTLLMPAVSVGNVGQLAMDLIISTLNMSKIGYFYTDCLVPMVGNNPYATTEGNSTELSINAEVYSLPSRKLVALQLRSIFIKYKSKPFCEKLLSWVKSSGCARVIVLSSSHSYQRNDLQLRSTPFRYLLTPSMQKSVQNKIKSLNWEEMEKSRCIPEIDDSEFCIRIPGGGITKTLYDESCSKEIQMAVLLKFVSEGDNIPDALGLVEYLNEWLQILKPLSDDPTVSASRWKIPSSWRLLFGSGLPPALF [PSMG2]” yielded a thermal stability score [1, 5] of -0.904, a thermal stability score ([1]; cell cycle stage: mitosis) of -2.71 and a melting temperature ([2]; cell cycle stage: G1/S) of 54.2 °C. The melting temperature ([2]; cell cycle stage: mitosis) was 53.9 °C, the “solubility in G1/S (log2)” value [3] was 0.264 and the “solubility change mitosis (log2)” value [4] was -0.0561.

“MFWKFDLHSSSHIDTLLEREDVTLKELMDEEDVLQECKAQNRKLIEFLLKAECLEDLVSFIIEEPPQDMDEKIRYKYPNISCELLTSDVSQMNDRLGEDESLLMKLYSFLLNDSPLNPLLASFFSKVLSILISRKPEQIVDFLKKKHDFVDLIIKHIGTSAIMDLLLRLLTCIEPPQPRQDVLNWLNEEKIIQRLVEIVHPSQEEDRHSNASQSLCEIVRLSRDQMLQIQNSTEPDPLLATLEKQEIIEQLLSNIFHKEKNESAIVSAIQILLTLLETRRPTFEGHIEICPPGMSHSACSVNKSVLEAIRGRLGSFHELLLEPPKKSVMKTTWGVLDPPVGNTRLNVIRLISSLLQTNTSSINGDLMELNSIGVILNMFFKYTWNNFLHTQVEICIALILASPFENTENATITDQDSTGDNLLLKHLFQKCQLIERILEAWEMNEKKQAEGGRRHGYMGHLTRIANCIVHSTDKGPNSALVQQLIKDLPDEVRERWETFCTSSLGETNKRNTVDLVTTCHIHSSSDDEIDFKETGFSQDSSLQQAFSDYQMQQMTSNFIDQFGFNDEKFADQDDIGNVSFDRVSDINFTLNTNESGNIALFEACCKERIQQFDDGGSDEEDIWEEKHIAFTPESQRRSSSGSTDSEESTDSEEEDGAKQDLFEPSSANTEDKMEVDLSEPPNWSANFDVPMETTHGAPLDSVGSDVWSTEEPMPTKETGWASFSEFTSSLSTKDSLRSNSPVEMETSTEPMDPLTPSAAALAVQPEAAGSVAMEASSDGEEDAESTDKVTETVMNGGMKETLSLTVDAKTETAVFKSEEGKLSTSQDAACKDAEECPETAEAKCAAPRPPSSSPEQRTGQPSAPGDTSVNGPV [PPP6R3]” gave a thermal stability score [1, 5] of -1.86, a thermal stability score ([1]; cell cycle stage: mitosis) of -1.84 and a melting temperature ([2]; cell cycle stage: G1/S) of 54.9 °C. The melting temperature ([2]; cell cycle stage: mitosis) was 54.1 °C, the “solubility in G1/S (log2)” value [3] was -0.236 and the “solubility change mitosis (log2)” value [4] was -0.12.
